This note sets out measurements from patent US20260049144A1 (Johns Hopkins, published 2026).

Broadly, the Kd is the concentration at which binding is half-saturated.

In test [1] the target is T1, PD-L1 extracellular domain (ECD) (UniProt Q9NZQ7 19-238, limits assumed).
T1 construct: extracellular domain; Soluble PD-L1 used in the yeast-display titrations and in BLI; Tags or biotinylation are not described; also called Programmed death-ligand 1; CD274
Description: yeast-displayed clone, soluble PD-L1 titration, flow cytometry. (In general: In flow cytometry, cells or beads pass a laser one at a time.)

Test [2] addresses T1, PD-L1 extracellular domain (ECD). Put plainly: BLI, equilibrium binding, soluble fragment on immobilized PD-L1. On the technique in general: In BLI a coated tip is dipped into the sample, and binding shifts an interference pattern.
Test [3] has as its target PD-L1 on cells (UniProt Q9NZQ7). Description: equilibrium binding to cells (method 'Cell'; cell line not stated).
Test [4] shares this target. Description: cell-based or functional assay.
Test [5] has as its target T1, PD-L1 extracellular domain (ECD). Put plainly: BLI competition: B8 VNAR immobilized on the tip, 100 nM PD-L1, soluble B8 VNAR titrated as competitor.

T1 sequence (Q9NZQ7 19-238 limits assumed): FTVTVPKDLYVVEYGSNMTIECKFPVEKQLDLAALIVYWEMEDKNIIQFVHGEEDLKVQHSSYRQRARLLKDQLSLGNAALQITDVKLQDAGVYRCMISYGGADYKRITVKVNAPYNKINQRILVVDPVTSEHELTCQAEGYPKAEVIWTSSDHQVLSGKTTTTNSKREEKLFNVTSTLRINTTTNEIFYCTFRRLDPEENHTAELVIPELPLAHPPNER
PD-L1 on cells, sequence (Q9NZQ7 19-290 limits assumed): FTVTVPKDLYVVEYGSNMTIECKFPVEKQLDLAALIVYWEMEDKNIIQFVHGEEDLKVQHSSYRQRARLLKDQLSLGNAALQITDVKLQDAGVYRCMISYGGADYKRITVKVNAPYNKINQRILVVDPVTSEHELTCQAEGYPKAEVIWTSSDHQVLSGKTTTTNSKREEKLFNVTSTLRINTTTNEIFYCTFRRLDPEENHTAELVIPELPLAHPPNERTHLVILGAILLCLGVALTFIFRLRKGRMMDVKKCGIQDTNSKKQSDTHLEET

B1: B11 VNAR (VNAR)
VNAR: ARVDQTPQTITKETGESLTINCVLRDSNCALSSTYWYRKKSGSTNEESISKGGRYVETVNSGSKSFSLRINDLTVEDSGTYRCRLFVSWLSDYDCATYYVSGGGTVVTVN
As for B1, the Kd in test [1] was > 1000 nM.

B2: C7 VNAR (VNAR)
VNAR: ARVDQTPQTITKETGESLTINCVVRDSACALVRTFWYRKKSGSTNEESISKGGRYVETVNSGSKSFSLRINDLTVEDSGTYRCKVFGWCRMRDVYGGGTVVTVN
notes: Not the same as C7 scFv
In test [1], B2 displayed a dissociation constant Kd of 400 nM.

B3: A9 VNAR (VNAR)
VNAR: ARVDQTPQTITKETGESLTINCVVRDTACALVRTFWYRKKSGSTNEESISKGGRYVETVNRGSKSFSLRINDLTVEDSGTYRCKVFGWCRMRDVYGGGTVVTVN
notes: VNAR (shark variable new antigen receptor single domain) from nurse sharks immunised with the PD-L1 ECD; Measured on yeast and as a soluble fragment (BLI)
With B3, the Kd in test [1] was 225 nM; in test [2], 127 nM.

B4: C4 VNAR (VNAR)
VNAR: ARVDQTPLTITKETGESLTINCVLRDSNCALSSTYWYRKSSGSTNEEIISKGGRYVETVNSGSNSFSLRINDLTVEDSGTYRCKVFGWCRMRDVYGGGTVVTVN
As to B4, the Kd in test [1] is > 1000 nM.

B5: TS1521 (VNAR, part only; not given: atezolizumab heavy and light chains, part only)
heavy, part: ARVDQTPQTITKETGESLTINCVLRDASYALGSTCWYRKKSGSTNEESISIGGRYVETVNSGSKSFSLRINDLTVEDSGTYRCGVDSWCPPVCSWAYAGCGDGTAVTVNGGGGSGGGGSGGGGS
light, part: GGGGSGGGGSARVDQTPQTITKETGESLTINCVVRDTACALVRTFWYRKKSGSTNEESISKGGRYVETVNRGSKSFSLRINDLTVEDSGTYRCKVFGWCRMRDVYGGGTVVTVN
Turning to B5, the equilibrium dissociation constant (Kd) with PD-L1 on cells [3] worked out at 0.204 nM. Moreover, in the test with PD-L1 on cells [4], the TCR activation (NFAT-induced luminescence), FC50, antibody continuously present was 0.51 nM; the TCR activation (NFAT-induced luminescence), potency, antibody removed before addition of effector cells came to 0.95 nM; the reduction in TCR activation potency, continued presence versus removal of antibody is 1.9 fold.

B6: B8 VNAR (VNAR)
VNAR: ARVDQTPQTITKETGESLTINCVLRDASYALGSTCWYRKKSGSTNEESISIGGRYVETVNSGSKSFSLRINDLTVEDSGTYRCGVDSWCPPVCSWAYAGCGDGTAVTVN
notes: VNAR (shark single domain); Measured on yeast and as a soluble fragment (BLI); Not the same as B8 scFv
Take B6: the Kd in test [1] stood at 97.3 nM; in test [2], 33.5 nM. Moreover, the “IC50 (read off the curve)” value in test [5] was ~100 nM.
